Substrate in data set [1]: CC1(C)S[C@@H]2[C@H](NC(=O)[C@H](C(=O)O)c3ccsc3)C(=O)N2[C@H]1C(=O)O
Put plainly: (§1) Ratio of Kcat to Km for Chryseobacterium meningosepticum beta-Lactamase GOB-1. The following applies: Elizabethkingia meningoseptica.

Substrate in data set [2]: CCN1CCN(C(=O)N[C@@H](C(=O)N[C@@H]2C(=O)N3[C@@H]2SC(C)(C)[C@@H]3C(=O)O)c2ccccc2)C(=O)C1=O
The data set is described as §1. The following applies: Elizabethkingia meningoseptica.

Substrate in data set [3]: CC(=O)OCC1=C(C(=O)O)N2C(=O)[C@@H](NC(=O)Cc3cccs3)[C@H]2SC1
The data set is described as §1. The settings on record: Elizabethkingia meningoseptica.

Substrate in data set [4]: C[C@@H](O)[C@H]1C(=O)N2C(C(=O)O)=C(SCCNC=N)C[C@H]12
The description is as §1. The following applies: Elizabethkingia meningoseptica.

Substrate in data set [5]: CO/N=C(\C(=O)N[C@@H]1C(=O)N2C(C(=O)O)=C(COC(C)=O)CS[C@H]12)c1csc(N)n1
The description is as §1. The following applies: Elizabethkingia meningoseptica.

Substrate in data set [6]: CO[C@@]1(NC(=O)Cc2cccs2)C(=O)N2C(C(=O)O)=C(COC(N)=O)CS[C@@H]21
Described as §1. The following applies: Elizabethkingia meningoseptica.

Substrate in data set [7]: CC1(C)S[C@@H]2[C@H](NC(=O)Cc3ccccc3)C(=O)N2[C@H]1C(=O)O
The data set is described as §1. The settings on record: Elizabethkingia meningoseptica.

Substrate in data set [8]: CC(C)(O/N=C(\C(=O)N[C@@H]1C(=O)N2C(C(=O)[O-])=C(C[n+]3ccccc3)CS[C@H]12)c1csc(N)n1)C(=O)O
Described as §1. The settings on record: Elizabethkingia meningoseptica.

Substrate in data set [9]: CO/N=C(\C(=O)N[C@@H]1C(=O)N2C(C(=O)[O-])=C(C[N+]3(C)CCCC3)CS[C@H]12)c1csc(N)n1
The description is as §1. The settings on record: Elizabethkingia meningoseptica.

Substrate in data set [10]: CO/N=C(\C(=O)N[C@@H]1C(=O)N2C(C(=O)O)=C(COC(N)=O)CS[C@H]12)c1ccco1
Described as §1. The settings on record: Elizabethkingia meningoseptica.

Substrate in data set [11]: CCN1CCN(C(=O)N[C@@H](C(=O)N[C@@H]2C(=O)N3[C@@H]2SC(C)(C)[C@@H]3C(=O)O)c2ccccc2)C(=O)C1=O
Put plainly: (§2) Ratio of Kcat to Km for Caulobacter crescentus beta-Lactamase CAU-1. The following applies: Caulobacter vibrioides.

Substrate in data set [12]: CC(=O)OCC1=C(C(=O)O)N2C(=O)[C@@H](NC(=O)Cc3cccs3)[C@H]2SC1
The description is as §2. The settings on record: Caulobacter vibrioides.

Substrate in data set [13]: C[C@@H](O)[C@H]1C(=O)N2C(C(=O)O)=C(SCCNC=N)C[C@H]12
The description is as §2. The following applies: Caulobacter vibrioides.

Substrate in data set [14]: CC1(C)S[C@@H]2[C@H](NC(=O)[C@H](N)c3ccccc3)C(=O)N2[C@H]1C(=O)O
Described as §2. The settings on record: Caulobacter vibrioides.

Substrate in data set [15]: CC1(C)S[C@@H]2[C@H](NC(=O)Cc3ccccc3)C(=O)N2[C@H]1C(=O)O
Described as §2. The following applies: Caulobacter vibrioides.

Substrate in data set [16]: CC(C)(O/N=C(\C(=O)N[C@@H]1C(=O)N2C(C(=O)[O-])=C(C[n+]3ccccc3)CS[C@H]12)c1csc(N)n1)C(=O)O
The data set is described as §2. The settings on record: Caulobacter vibrioides.

Substrate in data set [17]: CO/N=C(\C(=O)N[C@@H]1C(=O)N2C(C(=O)O)=C(COC(N)=O)CS[C@H]12)c1ccco1
Described as §2. The following applies: Caulobacter vibrioides.

Substrate in data set [18]: CC1(C)S[C@@H]2[C@H](NC(=O)[C@H](C(=O)O)c3ccsc3)C(=O)N2[C@H]1C(=O)O
Put plainly: (§3) Ratio of Kcat to Km for Pseudomonas maltophilia ULA-511 beta-Lactamase L-1. The following applies: Stenotrophomonas maltophilia.

Substrate in data set [19]: CCN1CCN(C(=O)N[C@@H](C(=O)N[C@@H]2C(=O)N3[C@@H]2SC(C)(C)[C@@H]3C(=O)O)c2ccccc2)C(=O)C1=O
The data set is described as §3. The following applies: Stenotrophomonas maltophilia.

Substrate in data set [20]: C[C@@H](O)[C@H]1C(=O)N2C(C(=O)O)=C(SCCNC=N)C[C@H]12
Described as §3. The settings on record: Stenotrophomonas maltophilia.

Substrate in data set [21]: CO/N=C(\C(=O)N[C@@H]1C(=O)N2C(C(=O)O)=C(COC(C)=O)CS[C@H]12)c1csc(N)n1
The description is as §3. The settings on record: Stenotrophomonas maltophilia.

Substrate in data set [22]: CO[C@@]1(NC(=O)Cc2cccs2)C(=O)N2C(C(=O)O)=C(COC(N)=O)CS[C@@H]21
The data set is described as §3. The following applies: Stenotrophomonas maltophilia.

Substrate in data set [23]: CO[C@@]1(NC(=O)C(C(=O)O)c2ccsc2)C(=O)N2[C@@H](C(=O)O)C(C)(C)S[C@@H]21
The description is as §3. The following applies: Stenotrophomonas maltophilia.

Substrate in data set [24]: CC1(C)S[C@@H]2[C@H](NC(=O)[C@H](N)c3ccccc3)C(=O)N2[C@H]1C(=O)O
The description is as §3. The settings on record: Stenotrophomonas maltophilia.

Substrate in data set [25]: CC1(C)S[C@@H]2[C@H](NC(=O)Cc3ccccc3)C(=O)N2[C@H]1C(=O)O
Described as §3. The settings on record: Stenotrophomonas maltophilia.

Substrate in data set [26]: CC(C)(O/N=C(\C(=O)N[C@@H]1C(=O)N2C(C(=O)[O-])=C(C[n+]3ccccc3)CS[C@H]12)c1csc(N)n1)C(=O)O
The data set is described as §3. The settings on record: Stenotrophomonas maltophilia.

Substrate in data set [27]: CO/N=C(\C(=O)N[C@@H]1C(=O)N2C(C(=O)[O-])=C(C[N+]3(C)CCCC3)CS[C@H]12)c1csc(N)n1
Described as §3. The following applies: Stenotrophomonas maltophilia.

Substrate in data set [28]: CO/N=C(\C(=O)N[C@@H]1C(=O)N2C(C(=O)O)=C(COC(N)=O)CS[C@H]12)c1ccco1
The data set is described as §3. The following applies: Stenotrophomonas maltophilia.

Substrate in data set [29]: CCN1CCN(C(=O)N[C@@H](C(=O)N[C@@H]2C(=O)N3[C@@H]2SC(C)(C)[C@@H]3C(=O)O)c2ccccc2)C(=O)C1=O
Put plainly: (§4) Ratio of Kcat to Km for Janthinobacterium lividum THIN-B.

Substrate in data set [30]: C[C@@H](O)[C@H]1C(=O)N2C(C(=O)O)=C(SCCNC=N)C[C@H]12
The description is as §4.

Substrate in data set [31]: CO/N=C(\C(=O)N[C@@H]1C(=O)N2C(C(=O)O)=C(COC(C)=O)CS[C@H]12)c1csc(N)n1
The data set is described as §4.

Substrate in data set [32]: CC1(C)S[C@@H]2[C@H](NC(=O)[C@H](N)c3ccccc3)C(=O)N2[C@H]1C(=O)O
Described as §4.

Substrate in data set [33]: CC(C)(O/N=C(\C(=O)N[C@@H]1C(=O)N2C(C(=O)[O-])=C(C[n+]3ccccc3)CS[C@H]12)c1csc(N)n1)C(=O)O
The description is as §4.

Substrate in data set [34]: CO/N=C(\C(=O)N[C@@H]1C(=O)N2C(C(=O)[O-])=C(C[N+]3(C)CCCC3)CS[C@H]12)c1csc(N)n1
The data set is described as §4.

Substrate in data set [35]: CO/N=C(\C(=O)N[C@@H]1C(=O)N2C(C(=O)O)=C(COC(N)=O)CS[C@H]12)c1ccco1
The description is as §4.

B1: GOB-1 metallo-beta-lactamase (Elizabethkingia meningoseptica), A4GRB7 (protein)
chain: MRNFATLFFMFICLGLNAQVVKEPENMPKEWNQTYEPFRIAGNLYYVGTYDLASYLIVTDKGNILINTGTAESLPIIKANIQKLGFNYKDIKILLLTQAHYDHTGALQDLKTETGAKFYADKADADVLRTGGKSDYEMGKYGVTFKPVTPDKTLKDQDKITLGNTILTLLHHPGHTKGSCSFIFETKDEKRKYRVLIANMPSVIVDKKFSEVTAYPNIQSDYAYTFKAMKNLDFDLWVASHASQFDLHEKRKEGDPYNPQLFMDKQSYFQNLNDLEKSYLDKIKKDSQDK
Take B1: the kcat/Km worked out at 5.2 ×10⁵ /M/s in data set [1]; 1.7 ×10⁶ /M/s in data set [2]; 6.7 ×10⁵ /M/s in [3]; 6.6 ×10⁵ /M/s in [4]; 8.5 ×10⁵ /M/s in data set [5]; 2.5 ×10⁵ /M/s in data set [6]. Further, the kcat/Km in data set [7] came out at 1.9 ×10⁷ /M/s; in data set [8] it was 7.6 ×10⁵ /M/s; in data set [9], 2 ×10⁵ /M/s; in [10], 9.8 ×10⁵ /M/s.

B2: Metallo-beta-lactamase (Caulobacter vibrioides), Q8KKG1 (protein)
chain: MKRLILAAAASLLALASAAHADDMPANWTKPTKPYRVVGNIYYVGTEGISSWLITSSEGHVVLDGGPNAETGKLVERNITALGFQLADVKILINTHAHYDHAGGLAQLKADTGAKLWISRDDAPAMAAGHHIGDNIYGPTPMPAAKPDRSFGDQTKLKLGEIAMVAHLTPGHTIGCTSWTTAVVEKGRPLTVTFPCSLSVAGNVLVGNKTHRTIVADYRASFAKLRAIPTDVMLPAHEEQGNLLAKRQKQLRGDPNAFVDPGELARFVDASEAAFNKELARQQAAGPNR
Turning to B2, the kcat/Km in data set [11] is 5.7 ×10⁵ /M/s; in data set [12], 4.3 ×10⁵ /M/s; in data set [13] it was 2 ×10⁵ /M/s; in data set [14] it was 5 ×10⁵ /M/s; in data set [15], 4.5 ×10⁵ /M/s; in data set [16] it was 2 ×10³ /M/s. Also, the kcat/Km in [17] was 1.4 ×10⁴ /M/s.

B3: Beta-lactamase L1 (Stenotrophomonas maltophilia), P52700 (protein)
chain: MRSTLLAFALAVALPAAHTSAAEVPLPQLRAYTVDASWLQPMAPLQIADHTWQIGTEDLTALLVQTPDGAVLLDGGMPQMASHLLDNMKARGVTPRDLRLILLSHAHADHAGPVAELKRRTGAKVAANAESAVLLARGGSDDLHFGDGITYPPANADRIVMDGEVITVGGIVFTAHFMAGHTPGSTAWTWTDTRNGKPVRIAYADSLSAPGYQLQGNPRYPHLIEDYRRSFATVRALPCDVLLTPHPGASNWDYAAGARAGAKALTCKAYADAAEQKFDGQLAKETAGAR
Take B3: the kcat/Km in data set [18] amounted to 2.7 ×10⁶ /M/s; in data set [19] it was 7 ×10⁶ /M/s; in data set [20], 7.3 ×10⁵ /M/s; in [21], 2.6 ×10⁶ /M/s; in [22] it was 5.5 ×10⁵ /M/s; in [23] it was 1.2 ×10⁶ /M/s. In addition, the kcat/Km stood at 4.4 ×10⁶ /M/s in [24]; 2.2 ×10⁷ /M/s in data set [25]; 1.8 ×10⁵ /M/s in data set [26]; 1.69 ×10⁴ /M/s in data set [27]; 2.7 ×10⁶ /M/s in data set [28].

B4: THIN-B proetin (Janthinobacterium lividum), Q9AEF9 (protein)
chain: MTLLAKLMLATVATMSAATVQAKTPAPKPDTPVDCDSCKAWNGEVTPFNVFGNTWYVGTAGLSAVLVTSPQGHVLLDGALPQSAPLIIANIAALGFRIEDVKFILNSHAHWDHAGGIAALQAASGATVVASASGALGLQSGTNGKDDPQFQAKPVVHVAKVEKVKVVGEGDAIKLGPLNLTAHMTPGHTPGATTWTWTSCEGQRCLDVVYADSLNPYSSGDFTYTGKGDGPDISASFAASIAKVAALPCDIILSVHPDSTGVLDKAAKRSGEHNPFIDANACRAYAATADAMLTKRLAKERGVALPAAAPAAQHAH
In the case of B4, the kcat/Km stood at 2 ×10⁵ /M/s in data set [29]; 1.5 ×10⁶ /M/s in data set [30]; 2 ×10⁶ /M/s in [31]; 3.7 ×10⁵ /M/s in data set [32]; 1.4 ×10⁵ /M/s in data set [33]; 7.9 ×10³ /M/s in data set [34]. Besides, in data set [35], the kcat/Km is 2.8 ×10⁶ /M/s.

Values taken from ChEMBL document CHEMBL1275443, “Functional diversity among metallo-beta-lactamases: characterization of the CAR-1 enzyme of Erwinia carotovora” (2008).
